The text below walks through data of patent US20180118846A1.

Some targets named below: CEACAM5 (human) (UniProt P06731); CEACAM6 (human) (UniProt P40199); CD19 (human) (UniProt P15391); CD20 (human) (UniProt P11836); CD22 (human) (UniProt P20273); HLA-DR (human).
Common to all, as to assay: cell-based or functional assay

Sequence of CD20 (human) (P11836 whole entry): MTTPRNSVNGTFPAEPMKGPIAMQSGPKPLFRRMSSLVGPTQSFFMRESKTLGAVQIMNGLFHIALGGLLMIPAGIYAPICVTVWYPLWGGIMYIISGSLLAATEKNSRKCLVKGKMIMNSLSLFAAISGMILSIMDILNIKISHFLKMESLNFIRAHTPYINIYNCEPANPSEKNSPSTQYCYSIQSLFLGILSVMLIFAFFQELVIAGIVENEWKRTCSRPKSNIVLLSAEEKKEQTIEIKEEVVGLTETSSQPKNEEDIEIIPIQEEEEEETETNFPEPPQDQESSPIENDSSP
Sequence of CD19 (human) (P15391 20-556): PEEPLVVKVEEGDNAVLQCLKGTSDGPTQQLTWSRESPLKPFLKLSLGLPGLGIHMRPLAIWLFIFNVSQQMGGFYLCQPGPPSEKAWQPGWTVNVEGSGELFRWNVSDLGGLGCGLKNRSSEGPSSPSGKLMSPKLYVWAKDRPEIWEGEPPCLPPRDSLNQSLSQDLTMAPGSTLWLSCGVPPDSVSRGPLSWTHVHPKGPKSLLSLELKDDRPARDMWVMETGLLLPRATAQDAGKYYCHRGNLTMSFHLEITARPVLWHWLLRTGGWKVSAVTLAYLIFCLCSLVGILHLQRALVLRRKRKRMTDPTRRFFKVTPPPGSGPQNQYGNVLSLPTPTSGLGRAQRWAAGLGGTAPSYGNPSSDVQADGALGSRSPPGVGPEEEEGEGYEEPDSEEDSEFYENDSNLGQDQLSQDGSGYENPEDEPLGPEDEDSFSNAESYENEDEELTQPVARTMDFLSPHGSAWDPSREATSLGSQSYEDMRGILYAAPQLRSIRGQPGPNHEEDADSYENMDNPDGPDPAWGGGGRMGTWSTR
Sequence of CEACAM5 (human) (P06731 35-702): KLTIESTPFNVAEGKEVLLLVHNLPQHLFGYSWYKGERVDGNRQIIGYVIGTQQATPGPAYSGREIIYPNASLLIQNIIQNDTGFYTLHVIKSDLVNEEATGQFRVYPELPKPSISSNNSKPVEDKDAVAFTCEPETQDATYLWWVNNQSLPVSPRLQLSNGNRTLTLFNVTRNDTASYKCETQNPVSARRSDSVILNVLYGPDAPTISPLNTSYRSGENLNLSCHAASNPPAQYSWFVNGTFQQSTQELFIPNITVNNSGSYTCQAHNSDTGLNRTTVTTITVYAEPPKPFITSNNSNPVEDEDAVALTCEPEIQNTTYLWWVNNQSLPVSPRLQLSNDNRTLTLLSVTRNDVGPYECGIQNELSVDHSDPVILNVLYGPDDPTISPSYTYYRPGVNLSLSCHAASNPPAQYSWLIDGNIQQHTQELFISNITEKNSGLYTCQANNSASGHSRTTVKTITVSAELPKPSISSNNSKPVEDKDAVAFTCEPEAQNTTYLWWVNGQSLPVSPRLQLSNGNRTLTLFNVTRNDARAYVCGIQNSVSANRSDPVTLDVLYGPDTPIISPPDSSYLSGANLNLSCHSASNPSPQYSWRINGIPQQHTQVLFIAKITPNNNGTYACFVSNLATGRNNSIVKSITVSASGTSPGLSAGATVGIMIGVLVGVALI
Sequence of CEACAM6 (human) (P40199 35-320): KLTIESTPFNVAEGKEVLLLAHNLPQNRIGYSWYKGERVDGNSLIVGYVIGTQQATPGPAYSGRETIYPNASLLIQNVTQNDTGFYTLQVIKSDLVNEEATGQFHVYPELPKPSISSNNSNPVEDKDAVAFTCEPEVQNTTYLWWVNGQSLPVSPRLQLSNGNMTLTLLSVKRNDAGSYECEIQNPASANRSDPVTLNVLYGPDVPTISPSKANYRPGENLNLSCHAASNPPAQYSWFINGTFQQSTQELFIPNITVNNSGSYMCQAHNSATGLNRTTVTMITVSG

Consider “(14)-3s, anti-CEACAM5 x anti-CD3 DNL complex (two CH1-DDD2-Fab-hMN-14 + one scFv-AD2-Okt3) (bispecific antibody)”, for which the T-cell mediated lysis of LS-174T, IC50 in the assay with CEACAM5 (human) is 2 pM.

Consider “(15)-3s, anti-CEACAM6 x anti-CD3 DNL complex (two CH1-DDD2-Fab-hMN-15 + one scFv-AD2-Okt3) (bispecific antibody)”, for which the T-cell mediated lysis of NCI-N87, IC50 with CEACAM6 (human) amounted to 3 pM.

In the assay with CD19 (human), “(19)-3s, anti-CD19 x anti-CD3 DNL complex (two CH1-DDD2-Fab-hA19 + one scFv-AD2-Okt3) (bispecific antibody)” registered a % of cell population in T cell-B cell association (CD3+CD20+) at 0.1 µg/mL (19)-3s greater than 25%; a T-cell mediated killing of Daudi, LysisMax of 60%; a T-cell mediated killing of Nalm6, LysisMax of 93%; a T-cell mediated killing of Namalwa, LysisMax of 60%. In the assay with CD19 (human), this substance had a T-cell mediated killing of Raji, IC50 of 3000 pM; a T-cell mediated killing of Raji, LysisMax of 41%; a T-cell mediated killing of Ramos, IC50 of 0.17 pM; a T-cell mediated killing of Ramos, LysisMax of 79%. In the assay with CD19 (human), this substance came in with an association of Daudi cells with T cells after (19)-3s greater than 90%; a co-binding of Daudi and T cells, % CD20+/CD7+ flow events after (19)-3s of 45.5%; a concentration at saturation of (19)-3s-mediated cell-to-cell association (Jurkat/Daudi) of 0.037 to 0.111 µg/mL; an ex vivo re-directed T-cell killing of Daudi, IC50 of 1 pM. In the assay with CD19 (human), the ex vivo re-directed T-cell killing of Jeko-1, IC50 worked out at 3000 pM; the ex vivo re-directed T-cell killing of Nalm-6, IC50 was found to be 6 pM; the ex vivo re-directed T-cell killing of Namalwa, IC50 was 63 pM; the ex vivo re-directed T-cell killing of Raji, IC50 is greater than 3000 pM. The same substance gave an ex vivo re-directed T-cell killing of Ramos, IC50 in the assay with CD19 (human) of 2 pM.

In the assay with CD20 (human), “(20)-3s, anti-CD20 x anti-CD3 DNL complex (two CH1-DDD2-Fab-hA20 + one scFv-AD2-Okt3) (bispecific antibody)” returned a T-cell mediated killing of Daudi, IC50 of less than 0.3 pM; a T-cell mediated killing of Daudi, LysisMax of 90%; a T-cell mediated killing of Jeko, LysisMax of 90%; a T-cell mediated killing of Namalwa, LysisMax of 53%. Moreover, in the assay with CD20 (human), the ex vivo re-directed T-cell killing of Daudi, IC50 was determined as 0.3 pM; the ex vivo re-directed T-cell killing of Jeko-1, IC50 is 1 pM; the ex vivo re-directed T-cell killing of Namalwa, IC50 is 30 pM; the ex vivo re-directed T-cell killing of Ramos, IC50 stood at 0.4 pM.

Take “(22)-3s, anti-CD22 x anti-CD3 DNL complex (two CH1-DDD2-Fab-hLL2 + one scFv-AD2-Okt3) (bispecific antibody)”: in the assay with CD22 (human), the T-cell mediated lysis of Daudi, IC50 turned out to be 5 pM; the T-cell mediated lysis of Daudi, LysisMax was determined as 60%; the ex vivo re-directed T-cell killing of Daudi, IC50 was determined as 6 pM; the ex vivo re-directed T-cell killing of Namalwa, IC50 was greater than 3000 pM.

With “(C2)-3s, anti-HLA-DR x anti-CD3 DNL complex (two CH1-DDD2-Fab-hL243 + one scFv-AD2-Okt3) (bispecific antibody)”, in the assay with HLA-DR (human), the T-cell mediated killing of Jeko-1, LysisMax amounted to 88%; the ex vivo re-directed T-cell killing of Jeko-1, IC50 came out at 20 pM; the ex vivo re-directed T-cell killing of Ramos, IC50 was 2 pM.
